{
  "source": "the supplement of paper PMC12764529",
  "note": "± gives the half width of the 95% confidence interval.",
  "data": [
    {"assay": "folding stability dG unfold (combined trypsin and chymotrypsin); higher = more stable", "method_in_brief": "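Bayesian fitting of sequencing counts gave K50 for each design. Unfolding free energy followed by setting this against a sequence-predicted unfolded-state K50 and a shared folded-state K50, either per protease or with trypsin and chymotrypsin combined. The designs, under 80 residues and lacking cysteine, were digested in a PA-tagged cDNA display format at 11 threefold-diluted protease concentrations and without protease, and only those with AlphaFold2 dimer inter-PAE above 15 were kept.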", "units": {"folding stability dG unfold": "kcal/mol"}, "values": [
      {"sequence": "SAGKEKEVKEVTIKIKIYVTNKNGEKKEITIEVKAKNKEDLLEALKKLGLSVEELKEKFPNIKIVEIEPSAG [r5_430_TrROS_Hall]", "folding stability dG unfold": "4.01 ± 0.55"},
      {"sequence": "SAGGSAGGSAGMKTSVTTPVTLPDGTPAVVTKYDGEVEIIDTGDGTSKVVPLSEVPPKLLSAGGSAGGSAGG [r11_155_JUSTAS]", "folding stability dG unfold": "0.604 ± 0.07"},
      {"sequence": "SAGGSAEIEGLEFEIVEVTEVRVLPDGTVEITLRVRLPDGSYLRITITVSPDGTVTIDIELLPADESAGGSA [r15_559_TrROS_Hall]", "folding stability dG unfold": "4.48 ± 0.18"},
      {"sequence": "SPVLEKIRKLVEELLKKLGIEVKEGETVEIEITLPDGSTIRITFDAKTKKITVEITIDGKKVTLTLEIKPSA [r9_426_TrROS_Hall]", "folding stability dG unfold": "> 6"},
      {"sequence": "SAGGSAPGEPIFIRWKIEHPNGNPWTIPFPIKTEEQALEQAIRFAESIAKKLGNPNVKIKIDEIIPSAGGSA [r15_698_TrROS]", "folding stability dG unfold": "0.914 ± 0.21"},
      {"sequence": "SGATLFIGRFPGEGTLIAVAKLPNGKEIVISFGNYPEGIAGIAALARELDPRAEIKHIELVPPDSVPPEFSA [r9_137_TrMRF]", "folding stability dG unfold": "1.45 ± 0.11"},
      {"sequence": "SAGKKVKINIKLPEGAKVTKIEFDKKTKTIKITIYDKNGKKVLEMTFVYKDKNGKYKIVKKITVYLKKPSAG [r5_434_TrROS_Hall]", "folding stability dG unfold": "4.09 ± 0.27"},
      {"sequence": "SAGGSAGGSKFKIVSIEVTVETNEDGSKTLTVKIRLEDGSEITITVPENATLEEVLKLLKELASAGGSAGGS [r12_1047_TrROS_Hall]", "folding stability dG unfold": "4.31 ± 0.11"},
      {"sequence": "SAGGRAVLLATFTTPDGSLVLVYEDPATGRVLVVSFDPSTGRVSVLRLRRVPNTGDLFIEDRATFPLSSAGG [r19_249_TrMRF]", "folding stability dG unfold": "3.97 ± 0.12"},
      {"sequence": "SAGGMLGFRAETDLFVEPIPPGAEVEPLRIGDRLLLIVRHPDGSYTINLFTPVRPLPVPPAFSTANAASAGG [r13_804_TrMRF]", "folding stability dG unfold": "1.68 ± 0.051"},
      {"sequence": "SAGGSAGGSAGKKKLRLTLPGAEVEYDAATNELTIRLKAPPPPPKTTTKVETKTVLLPGKSAGGSAGGSAGG [r11_149_TrROS_Hall]", "folding stability dG unfold": "0.989 ± 0.18"},
      {"sequence": "SAGGSAGGSNWVEIDIPHDDGRDIKITMWPDGYMQIEYPNGKPVYEIPVPPNMSIDEIAERILSAGGSAGGS [r12_990_TrROS]", "folding stability dG unfold": "0.624 ± 0.15"},
      {"sequence": "SPEIKIELVYDEETEELYLEIEIRFPESEEEAIEALKKLLEELGFEVVEIEEIEVEEDGTVRIRVRIRKKSA [r9_876_TrROS_Hall]", "folding stability dG unfold": "> 6"},
      {"sequence": "SAGGKIPPGMKLEIEDINIEFYNNGWIKITVKMTIWAPDGKTMTMTMTIVIPIRPPPPPPNDPENNESAGGS [r8_90_TrROS]", "folding stability dG unfold": "4.29 ± 0.44"},
      {"sequence": "SAGGELIEKAIEEALENGEEVEIEVVLRDENGELYRIRIRVRRERLPDGEVKTEIEIEIERFPLPEESAGGS [r16_323_TrROS_Hall]", "folding stability dG unfold": "4.6 ± 0.12"},
      {"sequence": "SAGGKKKITITIEEVEELENGPLVYRVTIEVDGKTYEILIEADSLEEAKAAAEKLAEELNVEVTIEPVSAGG [r13_750_TrROS_Hall]", "folding stability dG unfold": "3.86 ± 0.11"},
      {"sequence": "SAIPINLPPGDKVKITFRNPDGSRMEIEFDPENGKWKVKMRPNDGKKQEQTIPAGNLDDLPPGVYSIEPVSA [r9_1110_TrROS]", "folding stability dG unfold": "1.33 ± 0.26"},
      {"sequence": "SRTIENPDNGIKITVDRVPGGRYRVHIFNPGGKPIHEREIPDMPIPPGDTREIKIPIKGLPPGMYLMLEPWS [r1_263_TrROS]", "folding stability dG unfold": "0.719 ± 0.13"},
      {"sequence": "SAGGMVEREFTLDGTRITITYVPSEGVILATFPDRTVTVPVPESLKDKSPEEVIELAKEFAKEYLESSAGGS [r16_215_JUSTAS]", "folding stability dG unfold": "3.43 ± 0.058"},
      {"sequence": "SAGGSAGGSMTAEEIAEKFPGLPPEQIKNIPIERHPDGYMTVNIEHRGPNGNKQEQQVEIPVDSAGGSAGGS [r12_1050_TrROS]", "folding stability dG unfold": "0.483 ± 0.16"},
      {"sequence": "SAGGSAGGSKKKNKPAPPVLVVKVEIVKIELSDEELEAIKKNKEKIKEIYLIKIEVTLVEPEESAGGSAGGS [r12_196_TrROS_Hall]", "folding stability dG unfold": "1.94 ± 0.14"},
      {"sequence": "SAGGSAGGSMTITVTKVDFPPGLYEGLTIEELRKLLGDENLPIKETPVTVTVTPEKLAALLLSSAGGSAGGS [r12_178_JUSTAS]", "folding stability dG unfold": "1.36 ± 0.096"},
      {"sequence": "SAGGSAGGSAGVSFVVDALFVDPNTNEVYHGHIEFYDDGTAKITLTNQNGKTKTFTFPVLFSAGGSAGGSAG [r3_61_TrMRF]", "folding stability dG unfold": "3.01 ± 0.19"},
      {"sequence": "SAGGMGLEELAKLSPEEIARRLAAEAKAAAAAAGTPDAAVTLEVTLEDKPIVVEVGADGTIRRVELGSAGGS [r16_431_JUSTAS]", "folding stability dG unfold": "0.922 ± 0.063"},
      {"sequence": "SAGGMKVTVTEDGSSSKVTITIKDPKTGIEKTYTATATVLPDGTVVYTITYPDGSKKTIPSSELELSSAGGS [r16_154_JUSTAS]", "folding stability dG unfold": "3.61 ± 0.11"},
      {"sequence": "SAMTTTETFEEGDYVYTVITTKIPSSLPPDSVVTIPVTTPLGAESEVVSEPGGTITVKVRLKKEDPELLSAG [r14_754_JUSTAS]", "folding stability dG unfold": "-0.176 ± 0.13"},
      {"sequence": "SAGGSALPPGQEVEITIMIMVMIYNPENGRMWMVMASVEIEIRVDPKNGKLEIKIKKISISIFPMDSAGGSA [r15_517_TrROS]", "folding stability dG unfold": "> 6"},
      {"sequence": "SAGGGIAEILEIREFEDGVEILILTDDLDDPEIIEELIDEIAEELGLPKEKIRAHIIPADIPPLPDEESAGG [r13_430_TrMRF]", "folding stability dG unfold": "1.04 ± 0.24"},
      {"sequence": "SAGGSVKQIALRIARDMGYPNVKVEEIPIEKTPNGWVQIPITVEHPKDGKPIGPFQIHIRPGDPIVSAGGSA [r2_137_TrROS]", "folding stability dG unfold": "0.731 ± 0.29"},
      {"sequence": "SETVEIEIELPDGTKVTITVDKDGKVHITIEVPEDNPELLEKGSIEELAKKLAEELGLSEKDVEVTVLPPSA [r9_401_TrROS_Hall]", "folding stability dG unfold": "2.8 ± 0.27"},
      {"sequence": "SAGMTFEVRYPLPPGQTHKEAREEVKDMVESIAREFMPEGWKIEPKDIDVDPDKGWIEYKVDIEIPPGMSAG [r5_146_TrROS]", "folding stability dG unfold": "1.72 ± 0.18"}
    ]}
  ]
}
